Experimental data published in US20130072665A1 (Amgen, published 2013).
Substitutions are numbered along the chain they refer to. Where two headings read alike, the source gives them in different places.

T1: PCSK9 V domain (450-692 of SEQ ID NO: 3) (human, UniProt Q8NBP7 450-692)
T1 construct: also called v-domain PCSK9
T1 chain: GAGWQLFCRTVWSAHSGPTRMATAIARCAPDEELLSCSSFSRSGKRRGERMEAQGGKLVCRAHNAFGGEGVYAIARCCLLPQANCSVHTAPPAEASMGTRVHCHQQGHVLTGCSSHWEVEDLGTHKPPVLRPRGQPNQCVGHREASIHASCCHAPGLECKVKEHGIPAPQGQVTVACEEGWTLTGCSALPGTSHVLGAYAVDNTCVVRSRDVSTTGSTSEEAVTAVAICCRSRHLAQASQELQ

B1: 23B5 (antibody, V domains shown)
VH: EVQLLESGGGLVQPGGSLRLSCAASGFTFSSYAMNWVRQAPGKGLEWVSTISGSGDNTYYADSVKGRFTISRDNSKNTLYLQMNSLRAEDTAVYYCAKKFVLMVYAMLDYWGQGTLVTVSS
VL: DILMTQSPSSLSASVGDRVTITCRASQSISSYLNWYQQKPGKAPKVLIYAASSLQSGVPSRFSGSGSGTDFTLTINSLQPEDFATYYCQQSYSSPITFGQGTRLEIK
B2: 1A12 (antibody, V domains shown)
VH: EVQLVESGGGLVQPGGSLRLSCAASGLTFSNFWMSWVRQAPGKGLEWVANIKQDGSEKYYVDSVKGRFTISRDNAKNSLYLQMNSLRAEDTAVYSCTRESNWGFAFDIWGQGTMVTVSS
VL: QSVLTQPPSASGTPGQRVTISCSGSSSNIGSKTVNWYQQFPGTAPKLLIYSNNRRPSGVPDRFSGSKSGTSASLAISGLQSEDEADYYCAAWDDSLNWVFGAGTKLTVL
notes: also called 1A12.2
B3: 9C9 (antibody, V domains shown)
VH: B2 VH with A23V, A24V, L27F, N31S, F32Y, S95Y, T97A
VL: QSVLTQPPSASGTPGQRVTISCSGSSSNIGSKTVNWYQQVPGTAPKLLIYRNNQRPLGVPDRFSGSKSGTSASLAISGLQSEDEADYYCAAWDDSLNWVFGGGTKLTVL
B4: 9H6 (antibody, V domains shown)
VH: B2 VH with L27F, N31R, F32Y, Q53H, S95Y, T97A, I108V, Q111H
VL: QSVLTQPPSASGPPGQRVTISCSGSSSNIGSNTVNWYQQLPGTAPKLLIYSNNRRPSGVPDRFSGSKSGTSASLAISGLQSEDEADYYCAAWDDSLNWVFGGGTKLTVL
B5: 30A4 (antibody, V domains shown)
VH: QVQLVESGGGVVQPGRSLRLSCAASGFTFSSYGMHWVRQAPGKGLEWVAVIWYDGSDKYYADSVKGRFTISRDNSKNTLYLQMNSLRAEDTAVYYCARETGPLKLYYYGMDVWGQGTTVTVSS
VL: DIVMTQSPLSLSVTPGEPPSISCRSSQSLLHSNGYNFLNWYLQKPGQSPQLLIYLGSHRASGVPDRFSGSGSGTDFTLEISRVEAEDVGVYYCMQVLQTPFTFGPGTKVDIK
B6: mouse PCSK9 (enzyme, UniProt Q80W65 35-694, looked up, not shown: small tags and cut ends)
chain: QDEDGDYEELMLALPSQEDGLADEAAHVATATFRRCSKEAWRLPGTYIVVLMEETQRLQIEQTAHRLQTRAARRGYVIKVLHIFYDLFPGFLVKMSSDLLGLALKLPHVEYIEEDSFVFAQSIPWNLERIIPAWHQTEEDRSPDGSSQVEVYLLDTSIQGAHREIEGRVTITDFNSVPEEDGTRFHRQASKCDSHGTHLAGVVSGRDAGVAKGTSLHSLRVLNCQGKGTVSGTLIGLEFIRKSQLIQPSGPLVVLLPLAGGYSRILNAACRHLARTGVVLVAAAGNFRDDACLYSPASAPEVITVGATNAQDQPVTLGTLGTNFGRCVDLFAPGKDIIGASSDCSTCFMSQSGTSQAAAHVAGIVARMLSREPTLTLAELRQRLIHFSTKDVINMAWFPEDQQVLTPNLVATLPPSTHETGGQLLCRTVWSAHSGPTRTATATARCAPEEELLSCSSFSRSGRRRGDWIEAIGGQQVCKALNAFGGEGVYAVARCCLVPRANCSIHNTPAARAGLETHVHCHQKDHVLTGCSFHWEVEDLSVRRQPALRSRRQPGQCVGHQAASVYASCCHAPGLECKIKEHGISGPSEQVTVACEAGWTLTGCNVLPGASLTLGAYSVDNLCVARVHDTARADRTSGEATVAAAICCRSRPSAKASWVQ
notes: biotinylated, tag not mentioned, in the hybridoma screen; also called mPCSK9-8xHIS; mPCSK9
B7: 16F12, anti-PCSK9 huIgG4 (antibody, V domains shown)
VH: QVHLVESGGGVVQPGRSLRLSCAASGFTFNSFGMHWVRQAPGKGLEWVALIWSDGSDEYYADSVKGRFTISRDNSKNTLYLQMNSLRAEDTAVYYCARAIAALYYYYGMDVWGQGTTVTVSS
VL: QSVLTQPPSVSAAPGQKVTISCSGSSSNIGNNFVSWYQQLPGTAPKLLIYDYNKRPSGIPDRFSGSKSGTSATLGITGLQTGDEADYYCGTWDSSLSAYVFGTGTRVTVLQ
notes: from hybridoma; also called 16F12 IgG4; 16F12.1
B8: 21B12 (antibody, V domains shown)
VH: QVQLVQSGAEVKKPGASVKVSCKASGYTLTSYGISWVRQAPGQGLEWMGWVSFYNGNTNYAQKLQGRGTMTTDPSTSTAYMELRSLRSDDTAVYYCARGYGMDVWGQGTTVTVSS
VL: QSALTQPASVSGSPGQSITISCTGTSSDVGGYNSVSWYQQHPGKAPKLMIYEVSNRPSGVSNRFSGSKSGNTASLTISGLQAEDEADYYCNSYTSTSMVFGGGTKLTVL
notes: lambda light chain; also called ABP 21B12; Ab 21B12
B9: 26H5 (antibody, V domains shown)
VH: B8 VH with V51I, L64V, G68V, P74T, A79V
VL: B8 VL with A45P, N62I, Y89F, N91S
notes: also called 26H5-7.4
B10: 27B2 (antibody, V domains shown)
VH: QVQLQESGPGLVKPSQTLSLTCTVSGGSISSGGYYWSWIRQHPGKGLEWIGYIYNSGSTYYNPSLKSRVTISVDTSKNQFSLKLSSVTAADTAVYYCAREDTAMVPYFDYWGQGTLVTVSS
VL: QSVLTQPPSVSGAPGQRVTISCTGSSSNIGAHYDVHWYQQVPGTAPKLLIYGNTYRPSGVPDRFSGSKSGTSASLAITGLQAEDEADYYCQSYDNSLSGVVFGGGTKLTVL
notes: also called 27B2.3; 27B2.3-7.4
B11: 3C4 (antibody, V domains shown)
VH: QVQLQESGPGLVKPSQTLSLTCTVSGGSISSSDYYWSWIRQHPGKGLEWIGYIYYSGSTYYNPSLKSRITISVDTSKNLFSLKLSSVTAADTAVYYCARGGVTTYYYAMDVWGQGTTVTVSS
VL: DIQMTQSPSSLSASVGDRVTITCRASQRISNYLSWYLQKPGIAPKLLIYAASSLQSGVPSRFSGSGSGTDFTLTISSLQSEDFATYYCQQSYSTPLIFGGGTKVEIK

Experiments:
[1] = molecular target: T2, PCSK9 ProCat (31-449 of SEQ ID NO: 3) (human, UniProt Q8NBP7 27-449); experiment: domain binding ELISA (coated antibody captures the PCSK9 form; OD650)
T2 construct: From PCSK9 449TEV after rTEV cleavage: GAMG-PCSK9 (31-449)-ENLYFQ; Written as one chain; autocatalysis between 152 and 153 splits pro-domain and catalytic domain; also called procat PCSK9; PCSK9 31-449

[2] = molecular target: T1, PCSK9 V domain (450-692 of SEQ ID NO: 3); experiment: as above
[3] = molecular target: T3, human PCSK9 (proprotein convertase subtilisin kexin type 9) (human, UniProt Q8NBP7 31-692); experiment: BIAcore solution equilibrium, pH 7.4
T3 construct: Used untagged, biotinylated, V5/His- or His-tagged depending on the assay; also called hPCSK9; huPCSK9

[4] = molecular target: T3, human PCSK9 (proprotein convertase …); experiment: BIAcore solution equilibrium, pH 5.5
[5] = molecular target: T3, human PCSK9 (proprotein convertase …); experiment: BIAcore solution equilibrium, pH 6.0
[6] = molecular target: T2, PCSK9 ProCat (31-449 of SEQ ID NO: 3); experiment: domain binding ELISA (coated antibody captures the PCSK9 form; OD650); remark: listed apart in the source
[7] = molecular target: T1, PCSK9 V domain (450-692 of SEQ ID NO: 3); experiment: as above
[8] = molecular target: T3, human PCSK9 (proprotein convertase …); experiment: BIAcore kinetic assay 1, His-tagged huPCSK9 captured, pH 6.0
[9] = molecular target: T3, human PCSK9 (proprotein convertase …); experiment: BIAcore kinetic assay 1, His-tagged huPCSK9 captured, pH 7.4
[10] = molecular target: T3, human PCSK9 (proprotein convertase …); experiment: BIAcore kinetic assay 1, His-tagged huPCSK9 captured, pH 5.5
[11] = molecular target: T3, human PCSK9 (proprotein convertase …); experiment: BIAcore solution equilibrium, pH 7.4; pH 7.4
31H4, anti-PCSK9 huIgG4 = molecular target: T4, 31H4, anti-PCSK9 huIgG4; experiment: KinExA solution equilibrium, % free 31H4.1 (100 pM) against [mPCSK9]
T4 construct: from hybridoma

16F12, anti-PCSK9 huIgG4 = molecular target: B7; experiment: KinExA solution equilibrium, % free 16F12 (100 pM) against [mPCSK9]
mouse PCSK9 [12] = molecular target: B6; experiment: KinExA solution equilibrium
mouse PCSK9 [13] = molecular target: B6; experiment: BIAcore, antibody immobilised, pH 7.4
[14] = molecular target: T1, PCSK9 V domain (450-692 of SEQ ID NO: 3); experiment: native PAGE gel shift
[15] = molecular target: T3, human PCSK9 (proprotein convertase …); experiment: BIAcore kinetic assay 2
[16] = molecular target: T3, human PCSK9 (proprotein convertase …); experiment: BIAcore kinetic assay 2, antibody captured, pH 7.4
[17] = molecular target: T3, human PCSK9 (proprotein convertase …); experiment: BIAcore kinetic assay 2, antibody captured, pH 6.0
[18] = molecular target: T3, human PCSK9 (proprotein convertase …); experiment: BIAcore kinetic assay 2, antibody captured, pH 5.5
[19] = molecular target: T1, PCSK9 V domain (450-692 of SEQ ID NO: 3); experiment: domain binding ELISA

Binder: B1
binding result [1]: binds | binding result [2]: no binding | Kd [3]: 0.1 nM | Kd [4]: 0.28 nM | Kd [5]: 0.2 nM

Binder: B2
Kd [3]: 0.56 nM | Kd [4]: 1.1 nM | binding result [6]: binds | binding result [7]: no binding | Kd [8]: 1.3 nM | Kd [5]: 1 nM | Kd [9]: 0.4 nM | Kd [10]: 1.4 nM

Binder: B3
Kd [4]: 3.2 nM | Kd [11]: 0.56 nM | Kd [8]: 2.3 nM | Kd [5]: 2.3 nM | Kd [9]: 0.56 nM | Kd [10]: 3.2 nM

Binder: B4
binding result [1]: binds | binding result [2]: no binding | Kd [3]: 0.7 nM | Kd [4]: 1.4 nM | Kd [5]: 1.3 nM

Binder: B5
binding result [1]: binds | binding result [2]: no binding

Binder: B6
IC50 (read off the curve) (31H4, anti-PCSK9 huIgG4): ~0.6 nM | IC50 (read off the curve) (16F12, anti-PCSK9 huIgG4): ~0.4 nM

Binder: B7
Kd (mouse PCSK9 [12]): 0.223 nM | Kd (mouse PCSK9 [13]): 6.4 nM

Binder: B8
binding result [14]: no binding

Binder: B9
off rate ratio pH 5.5/pH 7.4 [15]: 0.5 | off rate ratio pH 6.0/pH 7.4 [15]: 0.8 | binding result [6]: binds | binding result [7]: no binding | koff [16]: 0.00056 s⁻¹ | koff [17]: 0.00047 s⁻¹ | koff [18]: 0.00026 s⁻¹

Binder: B10
off rate ratio pH 5.5/pH 7.4 [15]: 1.4 | off rate ratio pH 6.0/pH 7.4 [15]: 1.3 | koff [16]: 0.00038 s⁻¹ | koff [17]: 0.00051 s⁻¹ | koff [18]: 0.00052 s⁻¹

Binder: B11
binding result [19]: binds
